The record followed here is US20260265360A1, “USE OF ANTI-FAM19A5 ANTAGONISTS FOR TREATING HEARING DISORDERS” (NEURACLE SCIENCE CO., LTD., priority 2023, published 2026).

Experiment [1] relates to mouse primary spiral ganglion neurons. As to the kind of experiment: Reversal of FAM19A5-induced inhibition of neurite outgrowth. The conditions noted are these: 10 μM FAM19A5 protein co-treated with 100 nM antibody, 3 DIV. The format is cell-based. How it is done:
Sprial ganglion neuron were cultured in culture media consisting of high-glucose (4.5 mg/mL) DMEM, 0.1 mg/ml penicillin, 0.1 mg/mL streptomycin, N2 supplement, and 10 µg/mL insulin and was designated here as “5K” because in this media, [K+]=5.4 mM. A depolarizing media, designated as “30K,” in which Na was replaced with equimolar K to raise [K] to 30 mM while maintaining osmolarity was also used.
Dissociated spiral ganglion cell cultures were prepared from postnatal day 4-5 (P4-5) cochleae and maintained using a procedure modified from the methods described by Bok et al., J Neurosci 23 (3): 777-87 (2003), which is incorporated herein by reference in its entirety. […]
Neurite outgrowth was quantified by measuring the total length of neurites per neuron. Neurons were stained with NF200 at either 2 or 3 DIV, and neurite lengths were measured using the Fiji (Image J). Individual neurons were manually selected, and neurite lengths were determined using the Simple Neurite Tracer plugin.
Briefly, mouse primary spiral ganglion neurons (cultured and processed as described in Example 11) were treated with a FAM19A5 protein (10 μM) alone or in combination with an anti-FAM19A5 antibody (1-30) (100 nM) at 0 DIV (day in vitro). […] Then, at 3 DIV, the neurons were stained for neurofilament protein (NF200) expression and the average neurite length quantified.

For experiment [2], the system named is noise-induced hearing loss mouse model. As to the kind of experiment: Dosage effect in noise-induced hearing loss mouse model (ABR threshold). The format is in vivo. Here is the method: FIGS. 15A, 15B, 15C, 15D, and 15E show the dose-dependent effects of FAM19A5 antagonist administration on ABR threshold in a noise-induced hearing loss mouse model. FIG. 15A provides a schematic of the experimental design. As shown, one day after noise exposure, the animals received varying concentrations of the anti-FAM19A5 antibody (1-30) (i.e., 0 mg/kg, 3 mg/kg, 7 mg/kg, 15 mg/kg, and 30 mg/kg). After noise exposure, control animals received a human anti-IgG antibody (30 mg/kg). ABR threshold was measured at one day after noise exposure and at two weeks after noise exposure. FIG. 15B provides a comparison of ABR threshold for the different treatment groups across a frequency of 0 kHz to 64 kHz at one day after noise exposure. FIG. 15C provides the same data shown in FIG. 15B except as bar graphs. FIG. 15D provides a comparison of ABR threshold for the different treatment groups across a frequency of 0 kHz to 64 kHz at two weeks after noise exposure. FIG. 15E provides the same data shown in […] except as bar graphs. In each of FIGS. 15B-15E, ABR threshold prior to noise exposure is also shown (“BN”). In both FIGS. 15C and 15E, for each of the frequency groups shown, the first bar (from the left) corresponds to pre-noise exposure (“BN”), the second bar corresponds to animal streated with the control anti-IgG antibody (“hIgG”), the third bar corresponds to animals treated with 0 mg/kg of the anti-FAM19A5 antibody, the fourth bar corresponds to animals treated with 3 mg/kg of the anti-FAM19A5 antibody, the fifth bar corresponds to animals treated with 7 mg/kg of the anti-FAM19A5 antibody, the sixth bar corresponds to animals treated with 15 mg/kg of the anti-FAM19A5 antibody, and the last bar corresponds to animals treated with 30 mg/kg of the anti-FAM19A5 antibody.
To assess whether the above-described therapeutic effects of FAM19A5 antagonists on hearing loss is dose dependent, the noise-induced hearing loss mouse model described in Example 3 was used. […] ABR threshold was measured prior to noise exposure, one day after noise exposure, and two weeks after noise exposure.

B1: 1-30: anti-FAM19A5 antibody, de-immunized variant of 3-2; VH SEQ ID NO: 235, VL SEQ ID NO: 240 (antibody, V domains shown)
VH: AVTLDESGGGLQTPGGALRLSCKASGFDFESFNMFWVRQAPGKGLEYVSQISSSEEDENYAPAVKGRATISRDNGQSTLYLQMNSLRAEDTGTYYCAKSSYDCPYGHCSSGVDSAGEIDAWGHGTEVIVSS
VL: ALTQPSSVSANPGETVKITCSGGGSEEEQYYYGWYQQKPGSAPVTLIYQDEERPSDIPSRFSGSTSGSTATLTITGVQAGDEADYYCGSWDSEDEDHFGAGTTLTVL
modifications: Low-PI VH, 1-30 VH, 1-17 VH, 1-32 VH, 4-11 VH, 6-10 VH; 1-30 VL
Turning to B1, the “neurite growth in FAM19A5-treated neurons” value in experiment [1] is “less reduction in neurite growth and comparable to the neurons from the control group”. Besides, the “effect on ABR threshold by dose” value in experiment [2] (one day post noise exposure, 15 mg/kg and 30 mg/kg) is given as “greatest effects”. Further, the “ABR threshold across frequencies” value in experiment [2] (one day post noise exposure, 1, 3, 7, 15, 30 mg/kg i.v.) is “dose-dependent reduction”. The ABR threshold result in experiment [2] (two weeks post noise exposure, doses of 7, 15 or 30 mg/kg, many of the frequencies) is reported as “significant reduction”.
